Experimental data as given in the supplement of paper PMC11865577.

Legend:
Experiment in all cases: pull-down binding Z-score (relative to library population); higher = stronger binding
Details in all cases: RNA library: Library-2
[1] = test system: TO-3-N3 (biotin conjugate)
In short: (§1)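 Biotin-conjugated small molecule (100 pmol) on streptavidin beads was incubated with 1 μg of heat-folded Cy5- or Cy3-end-labelled RNA library in phosphate/NaCl/KCl buffer at 25 °C for 60 min. Following three washes, RNA was eluted with hot SDS and hybridised at 55.5 °C for 20 h to a DNA barcode microarray. The binding value is a Z-score computed from the library mean and standard deviation, after subtraction of beads without compound and averaging of barcoded replicate probes with the highest and lowest excluded.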

TO-N3 (biotin conjugate) = test system: TO-N3 (biotin conjugate)
In short: as §1

[2] = test system: TO-N3-2 (biotin conjugate)
In short: as §1

[3] = test system: TO-3-N3-2 (biotin conjugate)
In short: as §1

Sequence | pull-down binding Z-score [1] | pull-down binding Z-score (TO-N3 (biotin conjugate)) | pull-down binding Z-score [2] | pull-down binding Z-score [3]
CUCAGUCCAAGAUGGUAUUUCUACUACCUAGGAACUGGG [SHAPE_invivo_SARS-CoV-2_Motif_544] | -0.642 | -0.646 | -0.627 | -0.217
GUGGCUAAAUCUGAAUUUGACCGUGAUGCAGCCAU [DMSMaPseq_invitro_SARS-CoV-2_Motif_214] | -0.576 | -0.504 | -0.12 | -0.199
GGGUUGGGUUGGGUUGGGUUGGGUUGGGUU [G4_r(GGGUU)6] | 7.99 | 6.75 | 5.08 | 10.1
GGGGCUGAGAAACCAAAGUUUC [IAV_invivo_PA_3_Motif_3+IAV_invivo_PA_3_Motif_3] | 0.484 | 0.788 | 0.822 | 0.214
GGUUUAUACCUUCCCAGGUAACAAACC | -0.697 | -0.928 | -1.05 | -0.582
AGUGUAAAAGUGCCUUUUACAUU [DMSMaPseq_invitro_SARS-CoV-2_Motif_79] | -0.69 | -0.863 | -1.12 | -0.399
CACUGUACAGUCUAAAAUGUCAGAUGUAAAGUG [DMSMaPseq_invitro_SARS-CoV-2_Motif_208] | -0.25 | -0.414 | -0.645 | -0.0983
ACAAGGCUAUUGAUGGUGGUGUCACUCGUGACAUAGCAUCUACAGAUACUUGU [SHAPE_invitro_SARS-CoV-2_Motif_170] | -0.355 | -0.449 | -0.052 | -0.287
CUGAUCCUAGUUUUCUGGGUAG [SHAPE_invivo_SARS-CoV-2_Motif_108] | -0.135 | -0.0828 | -0.359 | -0.369
GGUGGAAUUGGACGAUUCUACAUCCAAAUGUGCACC [IAV_invivo_NP_5_Motif_3+IAV_invivo_NP_5_Motif_3] | -0.714 | -0.779 | -0.454 | -0.333
ACAUAGCAGUGGUGUUACCCGUGAACUCAUGCGUGAGCUUAACGGAGGGGCAUACACUCGCUAUGU | -0.138 | -0.015 | 0.0437 | -0.167
UAACACCAGGAACAAAUACUUCUAACCAGGUUGCUGUUCUUUAUCAGGGUGUUA [SHAPE_invivo_SARS-CoV-2_Motif_440] | -0.383 | -0.633 | -1.19 | -0.22
UGGUUGGUUGGUUGGUUGGUUGGU [G4_r(UGGU)6] | 7.93 | 6.68 | 4.58 | 7.83
GUUCUCUAAACGAAC | -0.273 | -0.364 | -1.16 | -0.742
AUCUGAAUUCUUCUAGAGUUCCUGAU | 0.655 | 0.466 | -0.858 | -0.168
GGAUUUCUGGACAUUUGGACAUAUAAUGCAGAAUUGUUAGUUCUACUGGAAAAUGAAAGGACUCUGGAUUUCC [IAV_invivo_HA_4_Motif_17+IAV_invivo_HA_4_Motif_17] | -0.659 | -0.198 | 0.395 | 0.4
GGAGUAAGUCUGAUACUUACCUG [U1snRNP5ss-1] | -0.0269 | 0.599 | 0.773 | -0.152
GCGCGGCCAGAAACUGGCGGCGC [mismatch-GG] | -0.0922 | -0.309 | -0.598 | -0.302
AAUAGAAGAAUUAUUCUAUU [SHAPE_invitro_SARS-CoV-2_Motif_349] | -0.546 | -0.867 | -1.81 | -0.687
CCUUCACACUCAAAGGCGGUGCACCAACAAAGGUUACUUUUGGUGAUGACACUGUGAUAGAAGUGCAAGG [SHAPE_invitro_SARS-CoV-2_Motif_51] | -0.728 | -0.605 | -0.0884 | -0.155
GCCAGUUGGAGGC [IAV_invivo_PB1_2_Motif_15+IAV_invivo_PB1_2_Motif_15] | -0.0995 | -0.233 | 0.153 | -0.201
UCCACACGCAAGUUGUGGA | -0.719 | -1.18 | -1.4 | -0.579
AGUAUGGCUACAUACU [DMSMaPseq_invitro_SARS-CoV-2_Motif_53] | -0.637 | -1.06 | -1.19 | -0.367

Sequence | pull-down binding Z-score [1] | pull-down binding Z-score (TO-N3 (biotin conjugate)) | pull-down binding Z-score [2] | pull-down binding Z-score [3]
AACUGGUAAUACACUUCAGUGUAUAAUGCUAGUU | -0.966 | -1.55 | -1.89 | -0.418
GUUCAGAGUUUAUUCUAGUGCGAAUAAUUGCACUUUUGAAUAUGUCUCUCAGC | -0.177 | -0.295 | -0.426 | 0.063
GUGCGGCACAGGCACUAGUACUGAUGUCGUAU [SHAPE_invitro_SARS-CoV-2_Motif_246] | 0.297 | 0.568 | 0.326 | 0.0228
GAGUGCUAUCUAACCUUAACUUGCCUGGUUGUGAUGGUGGCAGUUUGUAUGUAAAUAAACAUGCAUUCCACACACCAGCUUUUGAUAAAAGUGCUU [DMSMaPseq_invitro_SARS-CoV-2_Motif_343] | -0.749 | -0.637 | -0.238 | -0.487
GCGCAGCCAGAAACUGGCGGCGC [mismatch-AG] | 0.114 | 0.0293 | -0.228 | -0.168
UAAAUUUUUGGCUUUGUGUGCUGACUCUAUCAUUAUUGGUGGAGCUAAACUUAAAGCCUUGAAUUUA | -0.848 | -0.962 | -1.2 | 0.0426
AUACCUGCACGUGCUCGUGUAGAGUGU | 0.0809 | -0.0676 | -0.468 | -0.0175
AAUAACUUACCUUUUAAGUUGACAUGUGCAACUACUAGACAAGUUGUU | -0.907 | -1.21 | -1.52 | -0.415
CCCAAUCGUGGCGUGUCGGCCUGCUUCGGCAGGCACUGGCGCCG [Pepper530] | 0.37 | 0.516 | 1.13 | 0.0777
GUCUUACACCGUGCGGCACAGGCACUAGUACUGAUGUCGUAUACAGGGCUUUUGAC [DMSMaPseq_invitro_SARS-CoV-2_Motif_242] | -0.0912 | 0.173 | 0.217 | 0.0142
UGGCCGCAAAUUGCACAAUUUGCCCCCA [SHAPE_invitro_SARS-CoV-2_Motif_532] | -0.293 | -0.363 | -0.6 | -0.435
AAACUCAAACCCGUCCUUGAUUGGCUUGAAGAGAAGUUUAAGGAAGGUGUAGAGUUU | -0.653 | -0.588 | -0.346 | 0.119
GCUUGAAGUGGAGC [IAV_invivo_NS1_NEP_8_Motif_14+IAV_invivo_NS1_NEP_8_Motif_14] | -0.454 | -0.23 | 0.386 | -0.23
AAGAAGGUCAAAUCAAUGAUAUGAUUUUAUCUCUUCUU | -0.253 | -0.543 | -1.06 | 0.176
GGAAGAGACAGGUACGUUAAUAGUUAAUAGCGUACUUCUUUUUC | -0.226 | -0.585 | -0.494 | -0.193
GUACUUGGUAGUUUAGCUGCCACAGUAC | -0.525 | -0.688 | -0.818 | -0.291
GACUUGCUUUAGCACUCAAUUUGCUUUUGCUUGUC | 0.241 | -0.0156 | -1.08 | -0.00573
UAGAGAAAACAACAGAGUUGUUAUUUCUAGUGAUGUUCUUGUUAACAACUAAACGAACAAUGUUUGUUUUUCUUGUUUUAUUGCCACUAGUCUCUA [SHAPE_invitro_SARS-CoV-2_Multi_58_ComplexLevel_1] | -0.989 | -0.976 | -0.78 | -0.215
GCGCUGCCAGAAACUGGCGAGCGC [bulge-G] | -0.426 | -0.593 | -0.578 | -0.354
GCGCUGCCAGAAACUGGCUUUAGCGC [bulge-UUU] | -0.00635 | -0.24 | -0.562 | -0.158
GACCCUGUGGGUU [SHAPE_invitro_SARS-CoV-2_Motif_242] | 0.817 | 0.574 | -0.805 | -0.329
GCGCAGCCAGAAACUGGCAGCGC [mismatch-AA] | -0.468 | -0.528 | -0.354 | -0.365
UCAAGACUAUUCAACCAAGGGUUGAAAAGAAAAAGCUUGA [SHAPE_invivo_SARS-CoV-2_Motif_22] | -0.217 | -0.551 | -0.823 | -0.14

Sequence | pull-down binding Z-score [1] | pull-down binding Z-score (TO-N3 (biotin conjugate)) | pull-down binding Z-score [2] | pull-down binding Z-score [3]
AGUGUUUGCCUAGGUUCUUUAAUCUACUCAACCGCU | -0.346 | -0.288 | -0.432 | -0.219
CAUCAUAUGCAGCUUUUGCUACUGCUCAAGAAGCUUAUGAGCAGGCUGUUGCUAAUGGUG | -1.04 | -0.917 | -0.238 | -0.315
CAUGGAUUUGUCUUCUACAAUUUGCCUAUG | -0.852 | -0.967 | -0.745 | -0.186
GUGGUUAUACCUACUAAAAAGGCUGGUGGCACUACUGAAAUGCUAGCGAAAGCUUUGAGAAAAGUGCCAACAGACAAUUAUAUAACCAC | -0.608 | -0.353 | 0.179 | 0.156
GAAUGGAGAACGCAGUGGGGCGCGAUCAAAACAACGUCGGCCCCAAGGUUUACCCAAUAAUACUGCGUCUUGGUUC | 0.148 | 0.452 | 0.849 | 0.382
GUCAAAGUGAC [SHAPE_invivo_SARS-CoV-2_Motif_385] | -0.196 | -0.434 | -0.851 | -0.543
GAGUCCUCAUCGGAGGACUU [IAV_invivo_NS1_NEP_8_Motif_11+IAV_invivo_NS1_NEP_8_Motif_11] | -0.347 | -0.729 | -1.36 | -0.368
CAACCUAAAUAGAGGUAUG | -0.399 | -0.716 | -0.591 | -0.292
GCACGUAGUGUAGCUAGUCAAUCCAUCAUUGCCUACACUAUGUC | 0.288 | 0.227 | 0.486 | 0.0633
GGAGGUUGCUAGUCAGGCUAGACAAAUGGUGCAAGCGAUGAGAACCAUUGGAACUCAUCCUAGCUCCAGUGCUGGUCUGAAAAAUGAUCUUC [IAV_invivo_M1_M2_7_Motif_15+IAV_invivo_M1_M2_7_Motif_15] | -0.55 | -0.195 | 0.839 | -0.816
UGGGAUUAUCCUA [DMSMaPseq_invitro_SARS-CoV-2_Motif_276] | 0.251 | -0.106 | -0.609 | -0.249
CUUUGUAUUGCAUAGACGGUGCUUUACUUACAAAGUCCUCAGAAUACAAAG | -0.811 | -1.28 | -1.1 | -0.719
CCUCUGACUAAGGGG [IAV_invivo_M1_M2_7_Motif_4+IAV_invivo_M1_M2_7_Motif_4] | -0.159 | -0.504 | -1.25 | -0.414
GGAACCUAGUAAUAGGUUUCC [DMSMaPseq_invitro_SARS-CoV-2_Motif_479] | 0.7 | 0.439 | -0.779 | -0.0496
CACCAAGACUACUUACUGGUG [IAV_invivo_PB1_2_Motif_22+IAV_invivo_PB1_2_Motif_22] | -0.338 | -0.706 | -1.37 | -0.501
UGGGUUGGGUUGGGUUGGGUUGGGUUGGGUUGGGUUGGGU [G4_r(UGGGU)8] | 8.92 | 7.56 | 5.96 | 10.4
CCUGAAUCUUGG [IAV_invivo_PB1_2_Motif_21+IAV_invivo_PB1_2_Motif_21] | -0.834 | -0.925 | -0.502 | -0.491
GAUGGUCAAGUAGACUUAUUUAGAAAUGCCCGUAAUGGUGUUCUUAUUACAGAAGGUAGUGUUAAAGGUUUACAACCAUC | -0.346 | -0.421 | -0.181 | -0.245
CAAUACAUAAGAAAGCUACAUGAUGAGUUAACAGGACACAUGUUAGACAUGUAUUCUGUUAUGCUUACUAAUGAUAACACUUCAAGGUAUUG | -0.424 | -0.411 | -0.157 | 0.625
GGUGUUUUAACUGCUGUGGUUAUACCUACUAAAAAGGCUGGUGGCACUACUGAAAUGCU | -0.83 | -0.521 | -0.153 | -0.12
AUGCAUUCUGCAU [SHAPE_invivo_SARS-CoV-2_Motif_273] | -0.0791 | -0.142 | -1.32 | -0.638
